Data published in patent publication US9618524B2, “Method, composition, isolation and identification of a plaque particle and related biomarker” (Plaxgen Inc., priority 2012, dated 2017).

Legend:
Assay in all cases: Mass spectroscopy proteomics, semi-quantitative binding affinity of serum proteins (plaqueproteome, Table 2)
Settings in all cases: higher number = stronger affinity
Tau plaque particles = system: Tau plaque particles; set-up: species or system human
Summary of the method: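 Serum or plasma proteins captured on Thioflavin S-labelled Tau plaque particles (Tau-74, Tau-275 oligomers preformed in PBS at 37° C for 2 h; 1 h co-incubation at 37° C) were isolated by FACS sorting, then tryptically digested and identified by MS/MS (Sequest, human UniProt, strict trypsin).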

[1] = target: T1, Abeta-42 plaque particles (Homo sapiens, UniProt P05067)
T1 construct: Abeta 1-42
Summary of the method: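 AD patient serum or plasma (50% in PBS) was incubated with Abeta-42 aggregates (30 μg) for 1 h at 37 °C, then stained with Thioflavin S for 30 min. Labeled particles were FACS-sorted, trypsin/Lys-C digested overnight and analyzed by MS/MS. Sequest searched human UniProt; Scaffold/Protein Prophet validated the identifications.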

[2] = target: T2, alpha-synuclein plaque particles (Homo sapiens, UniProt P37840)
T2 construct: 140 amino acids polypeptide
Summary of the method: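 AD-subject plasma or serum (800 μL of 50%) mixed with 30 μg preformed alpha-synuclein aggregates for 1 h at 37 °C; Thioflavin S-positive particles isolated by flow sorting. After reduction, acrylamide alkylation and overnight tryptic digestion, serum proteins identified by MS/MS with Sequest and Scaffold.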

[3] = system: Low density cholesterol (Chl small) plaque particles; set-up: species or system human
Summary of the method: (§1)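 Atherosclerotic plasma/serum (50% in PBS) + 30 μg cholesterol aggregates, 1 hr 37° C; FACS gates split low- vs high-density particles. Acetone precipitation, urea/ProteaseMAX, acrylamide alkylation, overnight Trypsin/Lys C at 37° C; Sequest search, Scaffold/Protein Prophet validation.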

[4] = system: High Density cholesterol (Chl Large) plaque particles; set-up: species or system human
Summary of the method: as §1

Molecule | Semi-quantitative analysis of proteins binding to different plaque particles: Tau (Tau plaque particles) | Semi-quantitative analysis of proteins binding to different plaque particles: Abeta-42 [1] | Semi-quantitative analysis of proteins binding to different plaque particles: Synuclein [2] | Semi-quantitative analysis of proteins binding to different plaque particles: Chl small [3] | Semi-quantitative analysis of proteins binding to different plaque particles: Chl Large [4]
Desmoglein-1 (protein) EWIKFAAACREGEDNSKRNPIAKIHSDCAANQQVTYRISGVGIDQPPYGIFVINQKTGEINITSIVDREVTPFFIIYCRALNSMGQDLERPLELRVRVLDINDNPPVFSMATFAGQIEENSNANTLVMILNATDADEPNNLNSKIAFKIIRQEPSDSPMFIINRNTGEIRTMNNFLDREQYGQYALAVRGSDRDGGADGMSAECECNIKILDVNDNIPYMEQSSYTIEIQENTLNSNLLEIRVIDLDEEFSANWMAVIFFISGNEGNWFEIEMNERTNVGILKVVKPLDYEAMQSLQLSIGVRNKAEFHHSIMSQYKLKASAISVTVLNVIEGPVFRPGSKTYVVTGNMGSNDKVGDFVATDLDTGRPSTTVRYVMGNNPADLLAVDSRTGKLTLKNKVTKEQYNMLGGKYQGTILSIDDNLQRTCTGTININIQSFGNDDRTNTEPNTKITTNTGRQESTSSTNYDTSTTSTDSSQVYSSEPGNGAKDLLSDNVHFGPAGIGLLIMGFLVLGLVPFLMICCDCGGAPRSAAGFEPVPECSDGAIHSWAVEGPQPEPRDITTVIPQIPPDNANIIECIDNSGVYTNEYGGREMQDLGGGERMTGFELTEGVKTSGMPEICQEYSGTLRRNSMRECREGGLNMNFMESYFCQKAYAYADEDEGRPSNDCLLIYDIEGVGSPAGSVGCCSFIGEDLDDSFLDTLGPKFKKLADISLGKESYPDLDPSWPPQSTEPVCLPQETEPVVSGHPPISPHFGTTTVISESTYPSGPGVLHPKPILDPLGYGNVTVTESYTTSDTLKPSVHVHDNRPASNVVVTERVVGPISGADLHGMLEMPDLRDGSNVIVTERVIAPSSSLPTSLTIHHPRESSNVVVTERVIQPTSGMIGSLSMHPELANAHNVIVTERVVSGAGVTGISGTTGISGGIGSSGLVGTSMGAGSGALSGAGISGGGIGLSSLGGTASIGHMRSSSDHHFNQTIGSASPSTARSRITKYSTVQYSK | 0 | 5 | 0 | 0 | 0
Ig gamma-2 chain C region (protein) ASTKGPSVFPLAPCSRSTSESTAALGCLVKDYFPEPVTVSWNSGALTSGVHTFPAVLQSSGLYSLSSVVTVPSSNFGTQTYTCNVDHKPSNTKVDKTVERKCCVECPPCPAPPVAGPSVFLFPPKPKDTLMISRTPEVTCVVVDVSHEDPEVQFNWYVDGVEVHNAKTKPREEQFNSTFRVVSVLTVVHQDWLNGKEYKCKVSNKGLPAPIEKTISKTKGQPREPQVYTLPPSREEMTKNQVSLTCLVKGFYPSDISVEWESNGQPENNYKTTPPMLDSDGSFFLYSKLTVDKSRWQQGNVFSCSVMHEALHNHYTQKSLSLSPGK | 11 | 11 | 10 | 14 | 12
Isoform 2 of N-acetylmuramoyl-L-alanine amidase (protein) SLPLLMDSVIQALAELEQKVPAAKTRHTASAWLMSAPNSGPHNRLYHFLLGAWSLNATELDPCPLSPELLGLTKEVARHDVREGKEYGVVLAPDGSTVAVEPLLAGLEAGLQGRRVINLPLDSMAAPWETGDTFPDVVAIAPDVRATSSPGLRDGSPDVTTADIGANTPDATKGCPDVQASLPDAKAKSPPTMVDSLLAVTLAGNLGLTFLRGSQTQSHPDLGTEGCWDQLSAPRTFTLLDPKASLLTMAFLNGALDGVILGDYLSRTPEPRPSLSHLLSQYYGAGVARDPGFRSNFRRQNGAALTSASILAQQVWGTLVLLQRLEPVHLQLQCMSQEQLAQVAANATKEFTEAFLGCPAIHPRCRWGAAPYRGRPKLLQLPLGFLYVHHTYVPAPPCTDFTRCAANMRSMQRYHQDTQGWGDIGYSFVVGSDGYVYEGRGWHWVGAHTLGHNSRGFGVAIVGNYTAALPTEAALRTVRDTLPSCAVRAGLLRPDYALLGHRQLVRTDCPGDALFDLLRTWPHFTAVSLRSLHYTARRPSVYTSSTRPLPPACNSCARTASARPPTSRRHVYSGNLGPAFAGHSAGNIPDPVTSAYAASAQPQTQPACPFPSS | 5 | 0 | 2 | 1 | 4
Apolipoprotein C-II (protein) TQQPQQDEMPSPTFLTQVKESLSSYWESAKTAAQNLYEKTYLPAVDEKLRDLYSKSTAAMSTYTGIFTDQVLSVLKGEE | 0 | 0 | 1 | 1 | 0
Platelet basic protein (protein) SSTKGQTKRNLAKGKEESLDSDLYAELRCMCIKTTSGIHPKNIQSLEVIGKGTHCNQVEVIATLKDGRKICLDPDAPRIKKIVQKKLAGDESAD | 2 | 0 | 1 | 0 | 0
Ig lambda chain V-III region LOI (protein) VTSYVLTQPPSVSVAPGQTARITCGGNNIGSKSVHWYQQKPGQAPVLVVYDDSDRPSGIPERFSGSNSGNTATLTISRVEAGDEADYYCQVWDSSSDHPT | 1 | 2 | 2 | 1 | 1
Complement C2 (protein) APSCPQNVNISGGTFTLSHGWAPGSLLTYSCPQGLYPSPASRLCKSSGQWQTPGATRSLSKAVCKPVRCPAPVSFENGIYTPRLGSYPVGGNVSFECEDGFILRGSPVRQCRPNGMWDGETAVCDNGAGHCPNPGISLGAVRTGFRFGHGDKVRYRCSSNLVLTGSSERECQGNGVWSGTEPICRQPYSYDFPEDVAPALGTSFSHMLGATNPTQKTKESLGRKIQIQRSGHLNLYLLLDCSQSVSENDFLIFKESASLMVDRIFSFEINVSVAIITFASEPKVLMSVLNDNSRDMTEVISSLENANYKDHENGTGTNTYAALNSVYLMMNNQMRLLGMETMAWQEIRHAIILLTDGKSNMGGSPKTAVDHIREILNINQKRNDYLDIYAIGVGKLDVDWRELNELGSKKDGERHAFILQDTKALHQVFEHMLDVSKLTDTICGVGNMSANASDQERTPWHVTIKPKSQETCRGALISDQWVLTAAHCFRDGNDHSLWRVNVGDPKSQWGKEFLIEKAVISPGFDVFAKKNQGILEFYGDDIALLKLAQKVKMSTHARPICLPCTMEANLALRRPQGSTCRDHENELLNKQSVPAHFVALNGSKLNINLKMGVEWTSCAEVVSQEKTMFPNLTDVREVVTDQFLCSGTQEDESPCKGESGGAVFLERRFRFFQVGLVSWGLYNPCLGSADKNSRKRAPRSKVPPPRDFHINLFRMQPWLRQHLGDVLNFLPL | 0 | 0 | 0 | 1 | 0
